Results taken from article doi:10.1101/2023.03.28.534355 (bioRxiv, 2023).

Legend:
[1] = target: GBP1 D308S/L309A/P310A (human) (UniProt P32455); test: mass photometry
[2] = target: human Guanylate-Binding Protein 1 (GBP1), full-length, non-farnesylated (human) (UniProt P32455); test: mass photometry
[3] = target: human Guanylate-Binding Protein 1 (GBP1), full-length, non-farnesylated (human) (UniProt P32455); test: SEC-MALS
[4] = target: the molecule itself; test: mass photometry

## GBP1 D308S/L309A/P310A (from UniProt P32455 1-592) (enzyme)
[1]
  stoichiometry N: 2

## human Guanylate-Binding Protein 1 (GBP1), full-length, non-farnesylated (from UniProt P32455 1-592) (enzyme)
[2]
  stoichiometry N: 2
[3]
  stoichiometry N: 2

B1: GBP1 D308S (enzyme)
chain: MASEIHMTGPMCLIENTNGRLMANPEALKILSAITQPMVVVAIVGLYRTGKSYLMNKLAGKKKGFSLGSTVQSHTKGIWMWCVPHPKKPGHILVLLDTEGLGDVEKGDNQNDSWIFALAVLLSSTFVYNSIGTINQQAMDQLYYVTELTHRIRSKSSPDENENEVEDSADFVSFFPDFVWTLRDFSLDLEADGQPLTPDEYLTYSLKLKKGTSQKDETFNLPRLCIRKFFPKKKCFVFDRPVHRRKLAQLEKLQDEELDPEFVQQVADFCSYIFSNSKTKTLSGGIQVNGPRLESLVLTYVNAISSGSLPCMENAVLALAQIENSAAVQKAIAHYEQQMGQKVQLPTETLQELLDLHRDSEREAIEVFIRSSFKDVDHLFQKELAAQLEKKRDDFCKQNQEASSDRCSALLQVIFSPLEEEVKAGIYSKPGGYRLFVQKLQDLKKKYYEEPRKGIQAEEILQTYLKSKESMTDAILQTDQTLTEKEKEIEVERVKAESAQASAKMLQEMQRKNEQMMEQKERSYQEHLKQLTEKMENDRVQLLKEQERTLALKLQEQEQLLKEGFQKESRIMKNEIQDLQTKMRRRKACTIS
[4]
  stoichiometry N: 2
